Assay results as given in the supplement of paper PMC9170038.

System: K4 kissing-loop RNA reporter
Experiment: apparent KD of K4 kissing-loop reporter; higher = weaker reporter binding
Details: Eterna round: R107
Protocol: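 RNA-MaP round R107: designed RNA switches with theophylline, tryptophan, arginine or FMN aptamers are transcribed on-chip within common flanks. They are titrated with a labelled K4 kissing-loop RNA reporter in RNA-MaP buffer (100 mM Tris pH 7.5, 80 mM KCl, 4 mM MgCl2), without ligand or with the indicated ligand. Median apparent KD per design.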

[1] = input ligand: theophylline 20 uM
[2] = input ligand: tryptophan 2.4 mM
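Note: bound reporter read as fluorescence of individual clusters on recovered sequencing chips by microscopy, with normalized cluster intensities fitted with a binding model.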

| Sequence | apparent KD of K4 kissing-loop reporter (input ligand: FMN 200 uM) [nM] | apparent KD of K4 kissing-loop reporter (input ligand: arginine 13.2 mM) [nM] | apparent KD of K4 kissing-loop reporter (input ligand: none) [nM] | apparent KD of K4 kissing-loop reporter [1] [nM] | apparent KD of K4 kissing-loop reporter [2] [nM] |
| --- | --- | --- | --- | --- | --- |
| ACCAUCAAAGAUGGCCAGGACUCAACUGAUACCAGAGUGGAAACACUCCCUUGGCAGCAGGUGAGUGAUGUUCACGAGUCCUGGA [Omel KL Theo A SS B v8] | 942 | 786 | 982 | 522 | 787 |
| AAAAGAAAGUCGGCCGCCACUCAACGCAGUGAUGUUGCAAGACAGAAGAGCAGUGAUGUUGCCCAGAGGACCGGGACACAAGGCC [Same State Typtophan B GF 3] | 352 | 384 | 444 | 401 | 309 |
| UAUUGCCACAGAGUGAUGUUCUGGCCGGAUACCAGCAUGCAAUUAUGCCCUUGGCAGCCGGAUGCGCGUCCAGCCACCGGGCCUG [theeternabot_exclusion_KL_Theo_A_29] | 1510 | 783 | 1310 | 1280 | 1140 |
| AAGUCAUAGGCAGGAUAUGCUUAGUAAUAAGGCCAUAUAUACGUAUAGAGUGAUGUUUUGUACCAGGCAGAAGGGCUACAUCAGU [FMN B Excl V8 (+2A)] | 541 | 276 | 373 | 532 | 544 |
| AGAUAGGGCUGAAGGAGCGUCGGAGAAGAGAAGAAGGAAUCCAGUGAUGUUGGAUAAAUCCGACAGGUAGGUCGCAGUUUUAUGA [hbob_SS_Arginine_B_2t138] | 108 | 126 | 99 | 109 | 115 |
| GGUAUGGAAGCAACAUCACAAGCCGUACCACGAGGACCGGUACGGCCGCCACUCGAUAACUUGCAGUGAUGUUGCAAGUAAGAAU [(T)''-(K)'-(T)'-(T1)-(T2)-(K1)-(K2)_Design6] | 147 | 80.5 | 133 | 117 | 68.6 |
| AACUUAAUUUAUAAGCAGUGAUGUUGCUCACGAGGACCGGUACGGCCGCCACUCGAUCGGACUUAGGUCUUCAAUUAUUUCUUAA [JR_ExcTryptoA_Sub018] | 114 | 157 | 137 | 140 | 121 |
| AAAUAUUCGAGUGAUGUUCGAUAAAUUUCAGAGGAUAUGCUUAAAAGCAGAAGGCUGUAUUUCUAUUUGUUAUGAAAUUUUAUAA [JR_ExcFMNA_Sub003] | 103 | 113 | 87.3 | 109 | 73.3 |
| GUACCAGUGAUGUUGGUAGGCGAGCGGGAUACCAGCCAAGACUCAGGCCCUUGGCAGCCCACAUAUCCCACGUAGGUAGUAGCUC [Same State - Theophylline A (Freestyle 17)] | 96 | 103 | 105 | 110 | 92.9 |
| GGAUAGGAGAGAGGAUAUGGGCUAGGCAAGAAUAACUUGUCUAGCAAAUCCAUGAGGAGUGAUGUUCCAGAAGGCUCUCCUAUCG [FmnBX 1 G9+C77] | 996 | 148 | 153 | 143 | 139 |
| GACUCAUGUAGAAGGAGCGUCAGAAGCUACAGACAUGAGUGAUGUUCAUGUUAGUUGAUUUGACAGGUAGGUCGCUACAGCAGGA [KL-SSArg B15 #analogue] | 280 | 207 | 247 | 283 | 229 |
| GAAAUCACGGAUGAUACCAGCCAGAACUCUCACAGUGAUGUUGUGCUUAAAUGAUUAGGAGGCCCUUGGCAGCAUACGCUAAUUU [theeternabot_sameState_KL_Theo_B_36] | 324 | 267 | 313 | 305 | 226 |
| GGCCACGGGCGAGGAUAUGGGCAUGAUUCAUCCUGGAGUGAUGUUCCAGGUCCUACGUUUCUAGCACCAGAAGGCGUUUGUUGCU [Enistein] | 131 | 196 | 215 | 180 | 165 |
| AAUACUAUCAGAAGGAGCGUGGAAUAUUCAUCUGUAUCUAAUACGAGUGAUGUUCGUAAUUCACAGGUAGGUCGCUGAUUAAUAC [whbob_Ex_Arginine_B_2th158] | 265 | 245 | 288 | 304 | 245 |
| UGACUGGAUGGAAGGAGCGCUAAACUCCUAGUGAUGUUAGGGAUACGAGGCAAAGCCUCGAGGCAGGUAGGUCGCCAUCUAGUCU [FiskerMod 24 - Jieux - Same State - Arginine B] | 167 | 129 | 124 | 147 | 136 |
| UGUGAGCUGUCGACAAAAGUCGACUAAAGCGAGGAUAUGACGAAAGUCAGAAGGCGUCAAUAAUGGAGUGAUGUUCCUGCUCACU [FmnA 9 G29] | 306 | 436 | 596 | 489 | 406 |
| ACGCUAGCUACCGAAAGGUAGCUAGCGAGUGAGGAUAUGUGGAAACACAGAAGGCACAGCACAGUGAUGUUGUGCGGCGAAAGCC | 587 | 249 | 932 | 522 | 729 |
| UCUGUUGUAUAUGAUACCAGCAGUGAGAGACAGGAAGUAUAGUGAUGUUAUAUGAGAGAAUGCCCUUGGCAGCGUGUGCGGGUGG [SSTheophylB.X] | 138 | 130 | 165 | 116 | 99.1 |
| GUACGCUCCCGAGUGAUGUUCGGUAAUCGCUAGGAUAUCGCUUUUGCGAGAAGGAGCGGAAUGAGGAAACUCGUUCUGAGUGUAC [FMN A 26] | 300 | 254 | 350 | 386 | 338 |
| UUGAGCCUGACGUAAGUCAGGCUCUGCGAGCGAGGACCGGUACGGCCGCCACUCGGUGCAGUGAUGUUGCAUGGCCGCAAGGCCG [#2 Exclusion - Tryptophan A Attempt #15 (HarryS)] | 278 | 257 | 363 | 259 | 339 |
| UACCUGCUGUCAGGAUAUGAGUGCAGUGAUGUUGCACUCAACGUAACCAUCUUGAAAUGCAAACACUCAGAAGGGACGCGCGAAG [Onaninso] | 151 | 99.8 | 122 | 91.8 | 102 |

| Sequence | apparent KD of K4 kissing-loop reporter (input ligand: FMN 200 uM) [nM] | apparent KD of K4 kissing-loop reporter (input ligand: arginine 13.2 mM) [nM] | apparent KD of K4 kissing-loop reporter (input ligand: none) [nM] | apparent KD of K4 kissing-loop reporter [1] [nM] | apparent KD of K4 kissing-loop reporter [2] [nM] |
| --- | --- | --- | --- | --- | --- |
| UGGAGUUGACGAAAAGUCAACUCCUGAGAUACCAGUGACGAAAGUCACCCUUGGCAGCUCACUGCCAGUGAUGUUGGUUUAUAAA [#OpenEnded 2] | 167 | 135 | 134 | 266 | 130 |
| AGACUACCACACUGUCAAUAGACAGUGUACUAGGAUAUGCUGAUAAGCAGAAGGAGUGAUGUUCCUCGGUAGUCAAUAAAAUAAU [FmnAX 13 U28+C67] | 220 | 300 | 286 | 350 | 276 |
| UGUAAGCGCGUAGAUACCAGCAGACGAGUGAUGUUCAAAAGAUUAAGGAAAAGAAAGUAAUGCCCUUGGCAGCUAAUCAUAAGCG [whbob_Ex_Theo_B_sa92] | 243 | 460 | 466 | 517 | 295 |
| GCCGUAGAUGGAAGGAGCGUGCCUUUCAGUUAUAGUGAUGUUAUAACCGAGGAACGGUUGGCACAGGUAGGUCGCCAUCUACGGC | 178 | 90.2 | 109 | 112 | 121 |
| UUCUUGAUGGAAACAUCGAGGAUUACUGAUACCAGUAUCGAUAGAUACCCUUGGCAGCAGAAUCAGUAAUCACGAGUGAUGUUCG [Ex Theophylline A K4 6] | 662 | 497 | 841 | 583 | 460 |
| CCGAUACAUUAUUCUACGGCCGAGAGCGAUACCAGCCAAAUUUAUGGCCCUUGGCAGCGCAGAUGCAGUGAUGUUGCAUACAUAC [Same State Theophylline A GF 18] | 102 | 158 | 95.6 | 166 | 83.2 |
| UUAAUAAUUCAAGGAUAUGUUUUCUAUUUCGAGUGAUGUUCGGUAUUAAUAAAUUUAAUAGAUUAUACAGAAGGUGAUGGAUAGU [Cynwulf-mod#5] | 108 | 101 | 84.2 | 99.1 | 65.8 |
| GCUAAGGAGUGAUGUUCCAAGUGAUGUUAACGAGGACCGGUACGGCCGCCACUCGAUACGGCCGGAAAGUAAGAUAAACUACAGC [Same State - Tryptophan A (Freestyle 5)] | 98.6 | 72.6 | 93.2 | 89.3 | 82.8 |
| ACAGAUUGAUUGAUUCACUUUGUAGCUGCGAAGGAUAUUAAGACGCUAAGAAGGUCGCUUAAGGGUAGUGAUGUUACCUUUUGAG [theeternabot_sameState_KL_FMN_A_27] | 57.3 | 55 | 57.8 | 56.6 | 51.4 |
| GGUAGCAUGGCGGCCGCCACUCUUCAUUAGUGAUGUUAAUGCCGAGUGCGCUAACUCCUACGGGAGAGGACCGGGCCAUGCUACC | 1220 | 4.43 | 25.8 | 919 | 14.6 |
| UUUGGAGUGGGAGGAUAUCCUAAUAUGGGUGAUGUUAGCGAUGUUGAAGGUGUAGUGAUGUUAUGCGGAGAAGGCCCACUGUAGA [BDazzled - #19 - Exc. FMN B] | 95 | 78.8 | 131 | 85.6 | 89.2 |
| AAUCCUAACGGAGUGAUGUUCCGUAGCGAUACCAGCCAUUGCGAUGGCCCUUGGCAGCGCUAUAAGCAUUGCUAGUAAGGGCCAA [Theo A Ex t7] | 167 | 148 | 168 | 163 | 159 |
| UUUAUGAUGUCGGCCGCCACUGGAUUAAUAUGUGUGUAAUCUAGUUCUGAGUGAUGUUUAGAGUCCAGGACCGGGACAUUUGUUA [#11 K4 Tryptophan B Exclusion] | 542 | 373 | 522 | 649 | 452 |
| AAAAUAAUCCAGUGAUGUUGGUAUCCAGAUACCAGCCAGGAAACUGGCCCUUGGCAGCUGGCGACGUACAAAAUAAGUACGUCGU [#OpenEnded 11 #StaticStem #K4Early] | 405 | 184 | 470 | 664 | 374 |
| UGUGUACCGGGAAGGAGCGUGAAUGAGAAUGGAUAUAGUGAUGUUAUAUAUACGAACGAAUCGCAGGUAGGUCGCCCGGAUCCCU [SSArgB.Y] | 418 | 408 | 432 | 444 | 345 |
| UGGAGUUGACGAAAAGUCAACUCCUGAGAUACCAGUGACGAAAGUCACCCUUGGCAGCUCACUGGCAGUGAUGUUGCGCGAUAAA [#23 K4 Theophylline A Same State] | 376 | 288 | 364 | 367 | 402 |
| AAAUAGAUCAGUCAUCCAGUGAUGUUGGAAGGAGCGUGCGAAAGCACAGGUAGGUCGCCAAAAUAAAAGUGGCUGAUCAAAAUAA | 629 | 374 | 302 | 594 | 302 |
| AAUAAUAGUUGAGCAGGCGUGGUCUGAGAUACCAGUGAUUUCGAUCACCCUUGGCAGCUCAGCAUGAGUGAUGUUCAUGCUAUUC [Theo A Ex t10] | 147 | 114 | 134 | 145 | 131 |
| GGAGUUACCUGGGAUACCAGUCGGAGUCCCAGAGCUCAGAGUGAUGUUCUGGGAUGUUUCGGCCCUUGGCAGCUCUGGGACUCCC [#2 Exclusion - Theophylline B Attempt #12 (HarryS)] | 535 | 509 | 637 | 599 | 466 |
| UGAUCACAGUGAUGUUGUGGCAAAAGUGAUACCAGCCGUGUACGAGGCCCUUGGCAGCACCAGGGCUGUACGUCGUUAGAUCCGG [theeternabot_exclusion_KL_Theo_A_33] | 211 | 156 | 194 | 177 | 169 |
| UAUAGCGUCAGAAGGAGCGUGAGUAUAACAUGGCUGGAGUGAUGUUCCAGGAGUUAAUACUCACAGGUAGGUCGCUGACUCCUGG [Arg B SS t2] | 173 | 125 | 92.8 | 150 | 174 |
